Measurements: patent US20210284724A1

How the values were obtained:
Assay in all cases: alanine scan, flow cytometry on transfected cells
[1] = biological target: human CXCL13 P22A (human) (UniProt O43927)
[2] = biological target: human CXCL13 F20A (human) (UniProt O43927)
[3] = biological target: human CXCL13 R24A (human) (UniProt O43927)
[4] = biological target: human CXCL13 F25A (human) (UniProt O43927)
human CXCL13 F25A (human), sequence (O43927 23-109 F47A): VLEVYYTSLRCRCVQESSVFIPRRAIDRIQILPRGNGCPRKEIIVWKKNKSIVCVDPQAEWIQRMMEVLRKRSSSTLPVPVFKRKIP

human CXCL13 F20A (human), sequence (O43927 23-109 F42A): as the sequence (O43927 23-109 F47A) above, with F20A, A25F counted along it
human CXCL13 P22A (human), sequence (O43927 23-109 P44A): as the sequence (O43927 23-109 F47A) above, with P22A, A25F counted along it
human CXCL13 R24A (human), sequence (O43927 23-109 R46A): as the sequence (O43927 23-109 F47A) above, with R24A, A25F counted along it

Binding reactivity (% WT) [1]: 97.4 % WT | Binding reactivity (% WT) [2]: 110 % WT | Binding reactivity (% WT) [3]: 88 % WT | Binding reactivity (% WT) [4]: 127 % WT
Substance: Control Fab
